In the Human Domainome abundance scans (Beltran et al. 2025):

B1: Neutrophil cytosol factor 2, residues 456 to 514; numbered along this chain, P19878 (parent)
chain: LKKGSQVEALFSYEATQPEDLEFQEGDIILVLSKVNEEWLEGECKGKVGIFPKVFVEDC

Variants of: B1
Assay: abundance fitness (aPCA) (normalised: wild type 0, dead -1); higher = more abundant; growth selection in yeast, the domain comes from the species named
Conditions: Homo sapiens

Abundance fitness of substitutions, site by site:
D58: Y -0.595 | P 0.214 | C 0.313 | K 0.351 | S 0.022 | R 0.155 | E 0.091 | V -0.138 | M -0.203 | I -0.268 | T 0.133 | G 0.392 | F -0.718 | L -0.493 | Q -0.079
F55: H -0.229 | S -0.753 | E -0.821 | W -0.529 | R -0.521 | K -0.584 | M 0.111 | N -0.522 | P -0.145 | A 0.034 | V 0.271 | G -0.486 | T -0.133 | Y 0.152 | L 0.207 | D -0.409 | C 0.597 | I -0.599
P52: R -0.918 | M -0.253 | L -0.094 | G -0.215 | S -0.585 | A -0.305 | Y -0.738 | T -0.341 | F -0.459 | E -0.642 | W -0.953 | K -0.559 | Q -0.645 | V -0.598 | D -0.479 | I -0.766 | C -0.51
V56: D -0.412 | W -0.46 | F -0.255 | P -1.09 | T -0.457 | R -0.637 | K -0.637 | A -0.719 | H -0.624 | Q -0.581 | N -0.439 | Y -0.574 | C -0.52 | G -0.713 | L -0.589 | E -0.415 | I -0.81
C59: R -0.173 | H -0.361 | A 0.057 | F -0.044 | Y -0.204 | P 0.078 | S -0.012 | V 0.402 | I 0.153 | G -0.64 | N -0.242 | T 0.289 | L -0.112 | D -0.555
K53: A -0.246 | F -0.857 | N -0.378 | D -0.61 | E -0.353 | C -0.848 | Y -0.722 | L -0.749 | T -0.707 | I -0.865 | M -0.549 | R 0.195 | V -0.536 | W -0.808 | S -0.39 | H -0.928 | G 0.02 | P -0.716
V54: Y -0.03 | Q 0.298 | P -0.459 | W -0.438 | G -0.209 | R 0.625 | F -0.203 | I -0.079 | T 0.18 | D 0.049 | M 0.378 | K 0.663 | A 0.431 | H 0.425 | E -0.124 | C 0.378 | L -0.434
I50: R -0.125 | Y -0.208 | Q -0.659 | V -0.298 | S -0.448
F51: T -0.165 | M 0.006 | A -0.63 | I -0.506 | L -0.735 | G -0.425 | N -0.584 | R -0.716 | V -0.342 | Y -0.359 | P -0.924 | W -0.739 | H -0.18 | E 0.113 | S -0.328 | C -0.247
E57: F -0.607 | R 0.865 | L -0.505 | H -0.084 | S 0.271 | I -0.697 | D -0.254 | V -0.198 | K 0.201 | N -0.194 | W -0.033 | Q 0.541 | T 0.487 | M -0.464 | G 0.005 | C -0.15 | P -0.28
